pEC50: −log10 of the molar value.

Common to all, as to assay: EC50 of free RNA motif oligo competing protein binding to immobilised probe
One data set has as its target TUBB4B (UniProt P68371). The method, boiled down:
(§1)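 Kd was calculated as EC50, taken from a four-parameter log-logistic fit, multiplied by a protein-dependent depletion factor. The assay used HEK293-FT lysate (2.5 mg protein/well) pre-incubated for 1 h at 4°C with free RNA oligos (0 nM to 30 μM), then incubated for 30 min at 4°C with the matching oligos bound through a 5′-amino-C6 linker to NHS-Sepharose beads. Bound proteins were measured by label-free LC-MS/MS and normalised to the control.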

The target in a further data set is T1, ZGPAT (UniProt Q8N5A5).
T1 sequence: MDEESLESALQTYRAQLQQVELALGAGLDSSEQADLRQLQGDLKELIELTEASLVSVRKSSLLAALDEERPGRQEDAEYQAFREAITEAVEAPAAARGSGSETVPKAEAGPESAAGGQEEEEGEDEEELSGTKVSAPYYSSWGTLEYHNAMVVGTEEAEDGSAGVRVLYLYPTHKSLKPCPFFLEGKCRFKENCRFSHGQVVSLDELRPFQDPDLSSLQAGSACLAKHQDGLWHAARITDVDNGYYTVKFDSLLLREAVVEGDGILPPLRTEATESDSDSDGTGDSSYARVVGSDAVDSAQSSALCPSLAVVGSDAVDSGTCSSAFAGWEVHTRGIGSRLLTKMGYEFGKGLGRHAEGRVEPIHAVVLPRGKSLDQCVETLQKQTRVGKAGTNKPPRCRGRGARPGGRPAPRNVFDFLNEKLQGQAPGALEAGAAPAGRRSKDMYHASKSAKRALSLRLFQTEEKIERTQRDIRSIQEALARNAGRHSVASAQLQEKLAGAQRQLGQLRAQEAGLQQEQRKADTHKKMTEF
The gist of the method:
as §1

Another data set deals with T2, HNRNPF (UniProt P52597).
T2 sequence: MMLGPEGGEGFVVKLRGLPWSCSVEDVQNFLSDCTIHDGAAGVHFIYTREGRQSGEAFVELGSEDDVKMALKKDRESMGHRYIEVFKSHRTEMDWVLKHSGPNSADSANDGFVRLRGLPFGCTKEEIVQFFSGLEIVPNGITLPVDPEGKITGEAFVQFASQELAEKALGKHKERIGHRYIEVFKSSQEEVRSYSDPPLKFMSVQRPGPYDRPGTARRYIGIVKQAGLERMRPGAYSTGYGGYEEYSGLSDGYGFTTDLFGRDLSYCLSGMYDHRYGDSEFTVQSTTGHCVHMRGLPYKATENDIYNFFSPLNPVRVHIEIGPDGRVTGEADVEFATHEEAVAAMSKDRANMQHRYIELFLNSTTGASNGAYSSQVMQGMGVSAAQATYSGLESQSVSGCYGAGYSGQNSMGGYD
The gist of the method: as §1

Another data set concerns the target T3, RBM14 (UniProt Q96PK6).
T3 sequence: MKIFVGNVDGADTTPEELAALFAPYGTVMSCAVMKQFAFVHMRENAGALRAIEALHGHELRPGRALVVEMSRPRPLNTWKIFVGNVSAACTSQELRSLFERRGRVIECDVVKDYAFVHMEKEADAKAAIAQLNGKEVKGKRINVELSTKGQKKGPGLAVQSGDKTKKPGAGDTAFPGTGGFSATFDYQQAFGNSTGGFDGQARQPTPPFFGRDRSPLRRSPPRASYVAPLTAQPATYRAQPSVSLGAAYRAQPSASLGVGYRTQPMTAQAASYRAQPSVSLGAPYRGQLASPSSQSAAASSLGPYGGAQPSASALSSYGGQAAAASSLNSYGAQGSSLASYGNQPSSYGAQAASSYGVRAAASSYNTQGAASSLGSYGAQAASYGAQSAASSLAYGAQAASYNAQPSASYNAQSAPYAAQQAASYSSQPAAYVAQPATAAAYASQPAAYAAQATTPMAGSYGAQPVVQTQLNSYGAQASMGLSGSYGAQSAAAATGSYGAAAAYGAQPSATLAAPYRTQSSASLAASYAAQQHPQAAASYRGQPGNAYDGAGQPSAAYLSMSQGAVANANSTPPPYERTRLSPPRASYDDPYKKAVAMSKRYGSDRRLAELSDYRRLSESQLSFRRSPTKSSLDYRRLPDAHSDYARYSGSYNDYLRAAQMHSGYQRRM
The gist of the method:
as §1

The next data set deals with P4HB (UniProt P07237). The gist of the method:
as §1

The target in the next data set is PIP5K1A (UniProt Q99755). The gist of the method:
as §1

The target of a further data set is MRPS18B (UniProt Q9Y676). The gist of the method: as §1
For a further data set, the target named is MRPS27 (UniProt Q92552). The gist of the method:
as §1

Another data set has as its target CNBP (UniProt P62633). The gist of the method:
as §1

A further data set deals with TARDBP (UniProt Q13148). The gist of the method:
as §1

Chain of P4HB (P07237 whole entry, looked up): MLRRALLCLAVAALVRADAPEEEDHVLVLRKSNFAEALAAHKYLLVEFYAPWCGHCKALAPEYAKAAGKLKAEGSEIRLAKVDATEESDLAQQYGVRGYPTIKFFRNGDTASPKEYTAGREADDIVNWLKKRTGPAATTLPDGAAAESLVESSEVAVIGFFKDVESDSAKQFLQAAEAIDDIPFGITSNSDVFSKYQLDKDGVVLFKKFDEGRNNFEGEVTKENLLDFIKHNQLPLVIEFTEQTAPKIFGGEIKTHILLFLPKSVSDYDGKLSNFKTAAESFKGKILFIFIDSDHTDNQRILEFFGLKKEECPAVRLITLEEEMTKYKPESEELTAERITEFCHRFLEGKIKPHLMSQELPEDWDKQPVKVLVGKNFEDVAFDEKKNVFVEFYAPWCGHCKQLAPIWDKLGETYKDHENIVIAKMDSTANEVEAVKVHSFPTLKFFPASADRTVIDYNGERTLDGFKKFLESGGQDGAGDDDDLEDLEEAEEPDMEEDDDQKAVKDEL
Chain of TARDBP (Q13148 whole entry): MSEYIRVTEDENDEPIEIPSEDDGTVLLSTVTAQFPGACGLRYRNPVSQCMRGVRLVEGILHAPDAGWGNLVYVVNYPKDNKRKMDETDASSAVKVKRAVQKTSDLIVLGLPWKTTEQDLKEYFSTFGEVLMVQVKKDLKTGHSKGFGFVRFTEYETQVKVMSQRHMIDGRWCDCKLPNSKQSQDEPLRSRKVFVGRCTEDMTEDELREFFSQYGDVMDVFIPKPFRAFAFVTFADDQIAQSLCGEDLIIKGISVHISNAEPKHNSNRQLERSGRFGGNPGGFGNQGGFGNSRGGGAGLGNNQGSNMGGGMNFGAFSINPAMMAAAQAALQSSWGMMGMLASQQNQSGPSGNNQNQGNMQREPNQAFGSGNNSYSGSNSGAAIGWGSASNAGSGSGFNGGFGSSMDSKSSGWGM
Chain of PIP5K1A (Q99755 whole entry): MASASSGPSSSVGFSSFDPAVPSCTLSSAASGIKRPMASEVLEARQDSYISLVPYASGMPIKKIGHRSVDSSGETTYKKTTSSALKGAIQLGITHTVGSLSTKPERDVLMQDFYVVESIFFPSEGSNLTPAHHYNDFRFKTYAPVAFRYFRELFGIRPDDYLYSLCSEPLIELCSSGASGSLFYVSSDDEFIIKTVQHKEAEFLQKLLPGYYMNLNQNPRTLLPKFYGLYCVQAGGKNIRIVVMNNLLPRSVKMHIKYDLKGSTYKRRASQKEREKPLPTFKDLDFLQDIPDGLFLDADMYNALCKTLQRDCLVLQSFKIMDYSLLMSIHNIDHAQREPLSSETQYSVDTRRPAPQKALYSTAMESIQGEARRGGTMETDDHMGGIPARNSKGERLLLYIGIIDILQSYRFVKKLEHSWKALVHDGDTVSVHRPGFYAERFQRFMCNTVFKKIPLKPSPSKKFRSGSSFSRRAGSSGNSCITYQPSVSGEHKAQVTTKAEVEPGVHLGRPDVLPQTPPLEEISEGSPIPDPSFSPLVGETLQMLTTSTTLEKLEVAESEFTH
Chain of TUBB4B (P68371 whole entry): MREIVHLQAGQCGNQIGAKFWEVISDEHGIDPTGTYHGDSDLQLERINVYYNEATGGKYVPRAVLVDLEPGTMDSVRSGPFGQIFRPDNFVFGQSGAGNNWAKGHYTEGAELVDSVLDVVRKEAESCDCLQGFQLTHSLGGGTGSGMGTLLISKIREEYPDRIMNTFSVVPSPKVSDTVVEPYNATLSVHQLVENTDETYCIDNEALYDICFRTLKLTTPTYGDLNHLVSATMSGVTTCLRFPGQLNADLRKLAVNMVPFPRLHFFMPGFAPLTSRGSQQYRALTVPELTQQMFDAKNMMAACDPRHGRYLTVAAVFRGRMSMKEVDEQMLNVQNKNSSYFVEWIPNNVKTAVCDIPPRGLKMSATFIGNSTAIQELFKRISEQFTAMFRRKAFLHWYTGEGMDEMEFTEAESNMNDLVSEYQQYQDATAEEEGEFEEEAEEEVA
Chain of CNBP (P62633 whole entry): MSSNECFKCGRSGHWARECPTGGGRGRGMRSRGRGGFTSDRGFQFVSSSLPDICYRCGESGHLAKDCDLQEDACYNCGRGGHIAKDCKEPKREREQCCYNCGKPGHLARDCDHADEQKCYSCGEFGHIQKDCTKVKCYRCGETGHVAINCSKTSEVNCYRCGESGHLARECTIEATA

As for AAUAAA, the pEC50 was 5.85 with TUBB4B; 5.02 with ZGPAT; 5.21 in the data set with HNRNPF; 5.70 with RBM14; 7.39 with P4HB; 5.65 with PIP5K1A.
For UAUUUAU, the pEC50 in the data set with MRPS18B is 7.29; with MRPS27 it was 7.08; in the data set with CNBP, 5.65; with TARDBP, 5.55.

These data come from the supplement of paper PMC6379048.
